The numbers were not newly measured in patent US9133440B2, “Generation of new pancreatic beta cells” (priority 2012, dated 2015), which cites them from elsewhere.

Data set [1] relates to STZ-rendered diabetic mice. To be noted: cited from earlier work.
Data set [2] relates to human pancreatic ductal tissue devoid of islets. To be noted: cited from earlier work.

B1: Reg3a protein: human Reg3a gene protein given to ductal tissue and STZ diabetic mice in the inventor's earlier study (protein, listed as Homo sapiens)
chain: MLPPMALPSVSWMLLSCLMLLSQVQGEEPQRELPSARIRCPKGSKAYGSHCYALFLSPKSWTDADLACQKRPSGNLVSVLSGAEGSFVSSLVKSIGNSYSYVWIGLHDPTQGTEPNGEGWEWSSSDVMNYFAWERNPSTISSPGHCASLSRSTAFLRWKDYNCNVRLPYVCKFTD
Regarding B1, the “rise in total beta cells staining insulin” value in data set [1] (STZ-rendered diabetic mice) is given as 3 fold. Besides, the fasting glucose in data set [1] (overnight fast, morning of day 39 of treatment, P=0.020 vs placebo) is 111.00 ± 11.4 mg/dL. In addition, the insulin concentrations entry in data set [2] is listed as “significant increase”.
